Measured values taken from US20250222125A1, “Anti-FGFR2b Antibodies, Conjugates and Methods of Use” (BeiGene, Ltd., priority 2024, published 2025).
“Also recorded” adds a separate entry of the source.

Columns and labels:
[1] = clinical trial, terminated early; cited from earlier work
[2] = target: T1, soluble human FGFR2b proteins (Homo sapiens, UniProt P21802); test: SPR binding kinetics (Biacore 8K, Example 5); details: room temperature
T1 construct: soluble human FGFR2b proteins (his tag, in-house generated); His tag; made in house
T1 sequence (P21802 22-378 isoform P21802-3 limits assumed): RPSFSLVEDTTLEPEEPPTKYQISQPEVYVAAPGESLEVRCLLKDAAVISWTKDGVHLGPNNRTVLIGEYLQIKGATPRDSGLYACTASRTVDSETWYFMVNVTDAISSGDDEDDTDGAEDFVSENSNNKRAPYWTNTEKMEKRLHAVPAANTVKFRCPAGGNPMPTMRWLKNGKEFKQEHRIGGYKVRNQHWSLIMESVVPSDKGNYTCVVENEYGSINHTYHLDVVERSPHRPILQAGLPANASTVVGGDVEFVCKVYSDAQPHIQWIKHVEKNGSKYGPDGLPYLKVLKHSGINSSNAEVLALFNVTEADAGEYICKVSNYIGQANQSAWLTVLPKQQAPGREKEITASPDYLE
Protocol: The binding affinity and kinetics of purified anti-FGFR2b antibodies were determined by surface plasmon resonance (Biacore 8K, GE Life Sciences) at room temperature. Briefly, mouse anti-human IgG Fc antibody was immobilized via amine coupling onto a activated CM5 biosensor chip (Cat. No. BR100530, GE Life Sciences). Purified monoclonal antibody candidates were flowed over the chip surface and captured by anti-human IgG antibody. Then a serial dilution of soluble human FGFR2b proteins (his tag, in-house generated) were injected over the antibodies captured surface and changes in surface plasmon resonance signals were analyzed to calculate the association rates (kon) and dissociation rates (koff) by using the one-to-one Langmuir binding model (BIA Evaluation Software, GE Life Sciences). The equilibrium dissociation constant (KD) was calculated as the ratio koff/kon.

human FGFR2b [3] = target: T2, human FGFR2b (Homo sapiens, UniProt P21802); test: ELISA protein binding to human FGFR2b (Example 4); details: coated protein
T2 sequence (P21802 22-822 isoform P21802-3 limits assumed): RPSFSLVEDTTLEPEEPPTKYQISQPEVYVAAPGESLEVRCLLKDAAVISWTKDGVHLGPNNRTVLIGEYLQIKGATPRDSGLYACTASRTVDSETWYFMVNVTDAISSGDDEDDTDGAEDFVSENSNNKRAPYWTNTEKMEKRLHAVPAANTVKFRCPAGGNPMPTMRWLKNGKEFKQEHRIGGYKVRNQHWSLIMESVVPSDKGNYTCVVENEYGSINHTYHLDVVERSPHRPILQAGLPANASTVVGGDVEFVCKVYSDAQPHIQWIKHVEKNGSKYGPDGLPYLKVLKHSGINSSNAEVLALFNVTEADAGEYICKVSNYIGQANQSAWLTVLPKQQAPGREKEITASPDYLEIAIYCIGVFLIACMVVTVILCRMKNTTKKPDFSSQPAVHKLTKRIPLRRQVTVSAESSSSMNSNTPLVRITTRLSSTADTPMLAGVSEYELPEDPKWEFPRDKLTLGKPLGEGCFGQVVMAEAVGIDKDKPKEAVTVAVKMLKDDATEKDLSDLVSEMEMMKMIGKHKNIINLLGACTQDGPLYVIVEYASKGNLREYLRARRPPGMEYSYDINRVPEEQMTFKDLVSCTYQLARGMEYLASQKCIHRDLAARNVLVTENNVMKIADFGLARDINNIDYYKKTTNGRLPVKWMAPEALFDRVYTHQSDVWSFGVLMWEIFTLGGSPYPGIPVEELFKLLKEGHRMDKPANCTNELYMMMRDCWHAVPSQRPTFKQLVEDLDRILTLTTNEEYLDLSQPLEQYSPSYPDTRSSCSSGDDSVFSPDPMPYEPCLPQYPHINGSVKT
Protocol: (§1) The binding affinity and specificity of purified anti-FGFR2b antibodies were determined by ELISA and FACS. […] After incubation and washing, the plates were developed with HRP substrate and absorbance was measured. […] After washing twice with FACS buffer, diluted Alexa Fluor 647 goat anti-human IgG secondary antibody was added and incubated with cells for 30 minutes at 4° C. in the dark. After washing twice with FACS buffer, cells were resuspended with FACS buffer and read using a Becton Dickinson LSR FortessaTM cell analyzer. Non-specific binding of these antibodies was evaluated by FACS binding against parental 293T blank cells. Titration curves were generated using a sigmoidal dose-response of nonlinear fit from GraphPadTM Software by Dotmatics.

Cyno FGFR2b [4] = test: ELISA binding to recombinant cyno FGFR2b (Example 11)
human FGFR2b [5] = target: T2, human FGFR2b; test: FACS binding to native FGFR2b on Expi293 cells, human FGFR2b (Example 10); details: Expi293 cells overexpressing human FGFR2b
Protocol: (§2) To evaluate the binding activity of anti-FGFR2b antibodies to native FGFR2b on living cells, Expi293 cells were engineered to overexpress human FGFR2b, cyno FGFR2b, mouse FGFR2b, or human FGFR2c. Expi293 cells expressing antigens were seeded in 96-well plates, and were incubated with serially diluted anti-FGFR2b antibodies. Goat anti-human IgG [Alexa Fluor® 647] […] The change of mean fluorescent intensity (MFI) of humanized candidates BGAh9239 and BGAh9179 was measured by flow cytometry. EC50 values for dose-dependent binding to native human FGFR2b, cyno FGFR2b, mouse FGFR2b, and human FGFR2c were determined using sigmoidal dose-response curves of nonlinear fit from GraphPad Prism™.

human FGFR2b [6] = target: T2, human FGFR2b; test: ELISA binding to recombinant human FGFR2b (Example 11)
human FGFR2b [7] = target: T2, human FGFR2b; test: SPR affinity determination, human FGFR2b (Example 9); format: binding; details: for Kd: kd/ka
Protocol: (§3) For affinity determination, antibodies were captured by anti-human Fc antibodies, and used in the affinity assay based on surface plasmon resonance (SPR) technology. SPR signals were analyzed to calculate the association rates (ka) and dissociation rates (kd) by using the one-to-one Langmuir binding model (BIA Evaluation Software, GE Life Sciences). The equilibrium dissociation constant (KD) was calculated as the ratio of kd/ka. Rmax represents the maximal feasible SPR signal generated by an interaction between a ligand-analyte pair and is represented in response units (RU). BGAh9239 and BGA9179 show similar binding profiles to human FGFR2b and cyno FGFR2b, and are similar to their parental antibodies BGAm1823 and BGAm1371, respectively.

Mouse FGFR2b = target: T3, Mouse FGFR2b (Mus musculus, UniProt P21803); test: FACS binding on Expi293 cells, mouse FGFR2b (Example 10); details: Expi293 cells overexpressing mouse FGFR2b
T3 construct: expressed in transfected cells; host or cells: Expi293
T3 sequence (P21803 22-707 isoform P21803-2 limits assumed): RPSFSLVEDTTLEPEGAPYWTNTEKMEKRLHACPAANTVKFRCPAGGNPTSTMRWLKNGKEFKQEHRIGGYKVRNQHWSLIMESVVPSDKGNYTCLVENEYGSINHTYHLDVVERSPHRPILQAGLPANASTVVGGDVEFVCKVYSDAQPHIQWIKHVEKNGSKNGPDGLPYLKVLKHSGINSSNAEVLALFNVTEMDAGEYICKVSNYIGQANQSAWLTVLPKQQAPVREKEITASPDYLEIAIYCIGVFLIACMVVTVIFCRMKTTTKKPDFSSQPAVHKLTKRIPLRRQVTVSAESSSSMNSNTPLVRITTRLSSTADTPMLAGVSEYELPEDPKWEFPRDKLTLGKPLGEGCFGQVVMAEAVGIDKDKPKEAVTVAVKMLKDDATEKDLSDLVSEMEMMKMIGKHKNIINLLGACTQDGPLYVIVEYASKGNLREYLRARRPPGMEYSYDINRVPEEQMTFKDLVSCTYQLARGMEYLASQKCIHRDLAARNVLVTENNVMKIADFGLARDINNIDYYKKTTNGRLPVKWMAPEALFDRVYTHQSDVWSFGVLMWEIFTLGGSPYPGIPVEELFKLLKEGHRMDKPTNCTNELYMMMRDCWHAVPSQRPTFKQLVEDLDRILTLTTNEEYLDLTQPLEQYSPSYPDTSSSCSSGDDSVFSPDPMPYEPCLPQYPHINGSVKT
Protocol: as §2

Human FGFR2c [8] = target: T4, Human FGFR2c (Homo sapiens, UniProt P21802); test: ELISA binding to recombinant human FGFR2c (Example 11); details: for Emax (A450): human FGFR2c; for binding to human FGFR2c: in words
T4 sequence (P21802 22-821): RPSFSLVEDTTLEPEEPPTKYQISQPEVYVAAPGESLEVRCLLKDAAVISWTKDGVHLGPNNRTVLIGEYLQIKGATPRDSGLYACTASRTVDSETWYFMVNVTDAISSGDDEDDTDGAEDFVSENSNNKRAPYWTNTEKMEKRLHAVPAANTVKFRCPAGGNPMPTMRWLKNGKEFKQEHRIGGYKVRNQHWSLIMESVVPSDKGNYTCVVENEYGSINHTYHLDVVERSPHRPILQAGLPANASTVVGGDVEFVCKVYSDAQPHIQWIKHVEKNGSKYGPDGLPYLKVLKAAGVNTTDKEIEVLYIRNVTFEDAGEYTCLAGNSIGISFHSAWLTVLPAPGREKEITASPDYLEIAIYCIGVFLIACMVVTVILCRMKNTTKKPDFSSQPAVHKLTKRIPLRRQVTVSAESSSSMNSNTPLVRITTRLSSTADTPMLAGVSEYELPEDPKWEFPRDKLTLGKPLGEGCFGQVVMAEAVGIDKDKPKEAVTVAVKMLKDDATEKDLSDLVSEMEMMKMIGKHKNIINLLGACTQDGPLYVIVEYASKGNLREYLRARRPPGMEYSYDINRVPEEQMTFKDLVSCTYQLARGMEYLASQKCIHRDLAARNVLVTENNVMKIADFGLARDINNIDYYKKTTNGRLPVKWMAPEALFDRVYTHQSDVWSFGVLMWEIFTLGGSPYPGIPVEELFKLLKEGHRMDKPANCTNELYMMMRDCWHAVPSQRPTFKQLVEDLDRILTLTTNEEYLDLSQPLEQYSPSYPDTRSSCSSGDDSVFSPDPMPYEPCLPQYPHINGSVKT

Cyno FGFR2b [9] = test: SPR affinity determination, cyno FGFR2b (Example 9); format: binding
Protocol: as §3

293T blank cells = test: FACS non-specific binding, parental 293T blank cells (Example 4)
Protocol: as §1

Human FGFR2c [10] = target: T4, Human FGFR2c; test: ELISA protein binding to human FGFR2c (Example 4); details: coated protein
Protocol: as §1

Murine FGFR2b OE cells = target: T5, Murine FGFR2b OE cells (Mus musculus, UniProt P21803); test: FACS cellular binding, murine FGFR2b OE cells (Example 4)
T5 construct: expressed in transfected cells; host or cells: 293T
T5 sequence (P21803 22-707 isoform P21803-2 limits assumed): as the sequence (P21803 22-707 isoform P21803-2 limits assumed) above
Protocol: as §1

Human FGFR2c OE cells = Human FGFR2c OE cells (Homo sapiens, UniProt P21802); test: FACS cellular binding, human FGFR2c OE cells (Example 4)
Human FGFR2c OE cells, sequence (P21802 22-821): as the sequence (P21802 22-821) above
Protocol: as §1

Human FGFR2c [11] = target: T4, Human FGFR2c; test: FACS binding on Expi293 cells, human FGFR2c (Example 10); details: for Emax (MFI): Expi293 cells overexpressing human FGFR2c
Protocol: as §2

Human FGFR2b OE cells = target: T6, Human FGFR2b OE cells (Homo sapiens, UniProt P21802); test: FACS cellular binding, human FGFR2b OE cells (Example 4)
T6 construct: expressed in transfected cells; host or cells: 293T
T6 sequence (P21802 22-822 isoform P21802-3 limits assumed): as the sequence (P21802 22-822 isoform P21802-3 limits assumed) above
Protocol: as §1

[12] = tested on: phosphorylated FGFR in SNU-16 cells; test: Inhibition of FGFR2 signaling in SNU-16 cells (Western blot of pFGFR); format: cell-based; details: antibody 10 μg/ml, FGF7 10 ng/ml, 2 hours
Protocol: Inhibition of the FGFR2 signaling pathway by the humanized antibodies was investigated. SNU-16 cells were grown in RPMI-1640 medium with 10% FBS, collected and washed twice with free medium and then seeded in 12-well plates at 1.5E6 cells/well in serum-free RPMI-1640. The plates were incubated at 37° C., 5% CO2, and 95% humidity in an incubator overnight. Anti-FGFR2b antibodies at a concentration of 10 μg/ml were added to the assay plates. Recombinant human FGF7 or FGF10 protein (10 ng/ml) in the presence of heparin (5 μg/ml) was added to the assay plates. The plates were incubated in a 37° C., 5% CO2, 95% humidity incubator for 2 hours. Following 2 hours incubation, cells were collected and washed twice with cold PBS. NP40 lysis buffer containing 1×PMSF and 1× Protease plus phosphatase inhibitors were added to the cell pellets. The mixture was pipetted up and down to suspend the pellet. The mixture was inverted gently and each placed for 10 minutes on ice, for a total of 30 minutes. The mixture was centrifuged at 12000× rpm for 10 minutes to pellet the cell debris. The supernatant was transferred to a new tube to quantify total protein concentration by BCA Kit. The protein samples were then split and stored at −80° C. for further Western blotting to detect the expression of pFGFR and total FGFR2.
Western blotting procedure: The completely thawed protein samples were mixed with 4×SDS loading buffer and were heated for 10 min at 37° C. Then the mixtures were centrifuged at ˜3500×rpm for 5 min. Equal amounts of proteins were loaded into an SDS-PAGE gel, whereafter proteins were transferred to PVDF membranes using iBlot. The membranes were then subjected to Western blotting analysis, focusing on phosphorylated FGFR and total FGFR2.

BaF3_hFGFR2b OE cells = test: Ligand-induced proliferation inhibition assay in BaF3_hFGFR2b OE cells; format: cell-based; details: antibody 10 μg/ml, heparin 5 μg/ml, 72 hours
Protocol: The inhibition activity of antibody on ligand-induced cell proliferation was evaluated in an FGFR2b engineered BaF3 cell line system (BaF3_hFGFR2b OE). BaF3 cells are dependent on interleukin-3 (IL-3) for growth. The BaF3 system allows for testing of kinases and kinase inhibitors. Some protein kinases can render BaF3 cells to be independent of IL-3, whereas kinase inhibitors antagonize this effect. Cells were seeded in 96-well plates at 30,000 cells/well in RPMI-1640 medium containing 10% fetal bovine serum. Anti-FGFR2b antibodies at a concentration of 10 μg/ml were added to the assay plates. Recombinant human FGF7 or FGF10 protein (40 ng/ml) in the presence of heparin (5 μg/ml) was added to the assay plates. The plates were incubated at 37° C., 5% CO2, 95% humidity in an incubator for 72 hours. Following incubation, 50 μl Cell Titer Glo reagent was added to each well and the plates were mixed for 1 min and then incubated at RT for 10 min. Luminescence signals were detected and recorded.
The Ba/F3 system is used to investigate downstream oncogenic signaling pathways and the susceptibility of driver variants to therapeutics. Driver-addicted Ba/F3 cells die when the driver-engaged signaling pathway is inhibited, and this effect can be rescued by re-introduction of […].
FIGS. 6 and 7 show the results of Ba/F3 proliferation assays. The net growth on Ba/F3 cells overexpressing FGFR2b is reported after treatment with anti-FGFR2b antibodies of the present disclosure. Normal Ba/F3 cells die shortly after withdrawal of exogenous […]. […] Comparator BGA2311 binds at the N-terminus and is not considered to be a ligand blocker. Thus, BGAm1371 may partially block the FGFR2b signaling pathway, such as the signaling pathway mediated by FGF7.

Molecule | EC50 (human FGFR2b [3]) [nM] | Human FGFR2b binding Emax(OD450) (human FGFR2b [3]) | Emax (A450) (Cyno FGFR2b [4]) | EC50 (human FGFR2b [5]) [nM] | Emax (MFI) (human FGFR2b [5]) | EC50 (human FGFR2b [6]) [nM] | Emax (A450) (human FGFR2b [6]) | Rmax (human FGFR2b [7]) [RU] | ka (human FGFR2b [7]) [M^−1S^−1] | kd (human FGFR2b [7]) [S^−1] | Kd (human FGFR2b [7]) [nM] | EC50 (Mouse FGFR2b) [nM] | Emax (MFI) (Mouse FGFR2b) | Emax (A450) (Human FGFR2c [8]) | binding to human FGFR2c (Human FGFR2c [8]) | ka (Cyno FGFR2b [9]) [M^−1S^−1] | kd (Cyno FGFR2b [9]) [S^−1] | 293T blank cells binding Emax (293T blank cells) [MFI] | Human FGFR2c binding Emax(OD450) (Human FGFR2c [10]) | EC50 (Murine FGFR2b OE cells) [nM] | other results
Aprutumab ixadotin: FGFR2 antibody conjugated to auristatin (conjugate, chains of the INN, looked up, auristatin payload conjugate, FGFR2 antibody conjugated to auristatin) VH: EVQLLESGGGLVQPGGSLRLSCAASGFTFSSYAMSWVRQAPGKGLEWVSAISGSGTSTYYADSVKGRFTISRDNSKNTLYLQMNSLRAEDTAVYYCARVRYNWNHGDWFDPWGQGTLVTVSS VL: QSVLTQPPSASGTPGQRVTISCSGSSSNIGNNYVSWYQQLPGTAPKLLIYENYNRPAGVPDRFSGSKSGTSASLAISGLRSEDEADYYCSSWDDSLNYWVFGGGTKLTVL |  |  |  |  |  |  |  |  |  |  |  |  |  |  |  |  |  |  |  |  | tolerability in clinical testing [1]: poorly tolerated
BGAh9239: humanized anti-FGFR2b IgG1 antibody from murine BGAm1823; VH SEQ ID NO: 9, VL SEQ ID NO: 10 (antibody, V domains shown, Synthetic: VH AA; Synthetic: VL AA) VH: QVQLVQSGAEVKKPGSSVKVSCKASGYTFSIYWLNWVRQAPGQGLEWMGQIYPENADTNYSGKFKGRVTITADKSTSTAYMELSSLRSEDTAVYFCARGGFDYWGQGTLVTVSS VL: DIQMTQSPSSLSASVGDRVTITCRASENIYSNLAWYQQKPGKAPKLLIYTATNLAEGVPSRFSGSGSGTDFTLTISSLQPEDFATYYCQHFYGILYTFGQGTRLEIK | 0.26 | 3.37 | 2.931 | 2.4 | 3082608 | 0.031 | 2.945 | 80.9 | 8.05E+04 | 3.00E−03 | 37.3 | 2.67 | 5098781 | 0.130 | no detectable binding | 7.99E+04 | 2.72E−03 | 31 | 0.07 | 1.59 | ka ([2]; antibody captured): 76600 M⁻¹ s⁻¹; kd ([2]; antibody captured): 0.00189 s⁻¹; Kd ([2]; koff/kon): 24.7 nM; Human FGFR2c OE cells binding Emax (Human FGFR2c OE cells): 36 MFI; Emax (MFI) (Human FGFR2c [11]): 23848 MFI; binding to native human FGFR2c (Human FGFR2c [11]; living Expi293 cells, in words): no detectable binding; EC50 (Human FGFR2b OE cells): 1.84 nM
BGAm1371: parental murine anti-FGFR2b antibody (parental mouse clone); VH SEQ ID NO: 32, VL SEQ ID NO: 34 (antibody, V domains shown, Synthetic: VH AA; Synthetic: VL AA) VH: QVQLKQSGAELVKPGASVKLSCTASGFNIKDTYIHWVKQRPEQGLEWIGRIDPANGNTMFASEFQGKATITAYTSSNTAYMQLSSLTSGDTAVYYCARSKIHYDYDEGFAYWGQGTLVTVSS VL: NIVLTQSPPSLAVSLGQRATVSCRASESVDDYGYSFLHWYQQKPGQPPKLLIYRASNLESGIPARFSGSGSRTDFTLTINPVETDDVATYYCQQSNQNPRTFGGGTKLEIK | 0.19 | 3.35 | 3.018 | 1.5 | 3052664 | 0.0309 | 3.013 | 96.3 | 7.29E+04 | 1.19E−03 | 16.3 | 3.5 | 4984598 | 0.204 | no detectable binding | 7.97E+04 | 1.25E−03 | 28 | 0.07 | 1.78 | Human FGFR2c OE cells binding Emax (Human FGFR2c OE cells): 33 MFI; Emax (MFI) (Human FGFR2c [11]): 23051 MFI; EC50 (Human FGFR2b OE cells): 1.25 nM; FGF7-induced FGFR phosphorylation [12]: weakly inhibited; inhibition of FGF7-induced BaF3_hFGFR2b cell proliferation (BaF3_hFGFR2b OE cells; FGF7 40 ng/ml): ten times less potent compared to BGA1421 and BGAm1823; also recorded: weaker blocking than comparator BGA1421; inhibition of FGF10-induced BaF3_hFGFR2b cell proliferation (BaF3_hFGFR2b OE cells; FGF10 40 ng/ml): did not inhibit the net growth
